In US20230227580A1, “ANTI-VWF ANTIBODIES AND USES THEREOF” (MONASH UNIVERSITY, priority 2020, published 2023):
“Also recorded” adds a separate entry of the source.

Key:
[1] = test system: thrombus formation / platelet deposition; test: Thrombus formation on collagen type I in stenosis channels (SRG versus constant shear); assay type: cell-based, human; details: for Thrombus formation: 15 minutes of blood flow
Description: (§1) In-house designed PDMS microfluidic chips (FIG. 1A) contained channels of 52 µm height with a footprint of 300 µm x 46 mm (used in FIG. 1) or 300 µm x 17 mm. Selected channels incorporated a semi-circular stenotic section of various lengths (600 µm, 1000 µm or 2000 µm diameter), creating 80% lumen reduction. Chips were manufactured as previously reported (Westein et al. Proceedings of the National Academy of Sciences of the United States of America. 2013 Jan 22;110(4):1357-62). The produced PDMS chips were sealed with cover slips by hydrophobic interaction and coated with collagen by perfusion of collagen solution followed by static incubation at RT for at least 1 hr. Channels were rinsed with PBS and blocked with 2% BSA. Wall shear rates of the input flow for these microchannels were approximated from volumetric flow rates by using the equation, γ = 6Q/wh2. Herein, γ is the wall shear rate (s^-1), Q the volumetric flow rate (mls^-1), w the channel with (cm) and h the channel height (cm).
(§2) Citrated whole blood was incubated with DiOC6 (0.5 µg ml^-1) (Sigma-Aldrich Co, St. Louis, MO, USA) and drawn through microfluidic channels by a programmable syringe pump (Legato 130, KD Scientific, USA). Time-lapse z-stack images of platelet deposition were captured in multiple track, resonant scanning mode, using a Nikon A1R confocal microscope system. Platelet deposition was recorded over time (2 frames per minute) for up to 20 minutes and quantified in ImageJ using a Z-projection of the acquired signal.

VWF-A1 domain = target: T1, VWF-A1 domain (Homo sapiens, UniProt P04275); test: BLItz bio-layer interferometry, immobilized VWF-A1 domain; assay type: binding; details: scFv-A1 20, 40 and 100 µg ml^-1
T1 construct: coated with purified full length VWF or isolated A1 domain
Experimental: (§3) Bio-layer Interferometry was performed on a BIItz System (Pall Forte Bio, USA). Protein-A biosensors were hydrated for 30 minutes in PBS-Tween (0.05%) and loaded with VWF-A1 domain (130 µg ml^-1). Remaining binding sites were blocked by exposure to a polyclonal mouse IgG for 5 min. Sequential adhesion of scFv-A1 at 0, 20, 40 and 100 µg ml^-1 was monitored for 5 min per concentration. Real time visualisation of binding interactions between scFv A1 and full length VWF/A1 domain was performed using the BLItz Pro software. Traces were manually baseline aligned and corrected for control binding (0 µg ml^-1 scFv-A1).

[2] = test system: platelet aggregation / thrombus formation; test: Progressive shear gradient flow model: whole blood over collagen type I patches in straight channels; assay type: cell-based, human; details: scFv A1 5 µg ml^-1, 1,000 s^-1
Description: Fluid dynamics were simulated with a COMSOL Multiphysics 4.2 laminar flow module applied to three-dimensional meshes. For all simulations, no-slip boundary conditions and Newtonian fluids were assumed. To obtain meshes from the plain channel geometries, channel dimensions were taken from the original computer-aided design (CAD) files and reconstructed in COMSOL. To obtain meshes from platelet aggregate geometries, confocal fluorescence microscopy image z-stacks of labeled platelets were processed in ImageJ. Each image in a z-stack was converted into a binary image by thresholding, and an x-y heightmap was constructed by summing all binary data in a z-stack followed by multiplying the result with the height of the original z-stack as documented by the confocal microscope. […] Input flow parameters were set based on pump settings as used in the experiments, and were adjusted to account for the reduced width of the fluorescence aggregate meshes compared to the full channel geometries. […]
Citrated whole blood was incubated with DiOC6 (0.5 µg ml^-1) (Sigma-Aldrich Co, St. Louis, MO, USA) and drawn through microfluidic channels by a programmable syringe pump (Legato 130, KD Scientific, USA). […] Platelet deposition was recorded over time (2 frames per minute) for up to 20 minutes and quantified in ImageJ using a Z-projection of the acquired signal.

[3] = test system: VWF-GPIbα bond strength (platelets rolling on VWF-collagen III); test: Platelet rolling velocity on collagen III bound VWF in stenotic or straight microfluidic channels; assay type: cell-based, human; details: scFv A1
Description: as §1, with “Herein, γ is the wall shear rate (s^-1), Q the volumetric flow rate (mls^-1), w the channel with (cm) and h the channel height (cm).” left out
For experiments measuring rolling velocities, anti αllbβ3 antibody (abciximab; 20 µg ml^-1)-treated whole blood containing 0.5 µg ml^-1 DiOC6 was drawn over a collagen type III-coated surface. […] 10 second video clips of rolling platelets were recorded in the green fluorescent channel using an Olympus IX81 microscope system. Platelet rolling velocities were calculated using Diatrack v3.04 large scale particle tracking software (Vallotton et al. Microsc Microanal. 2013 Apr;19(2):451-60).

[4] = target: T2, denatured full length VWF (Homo sapiens, UniProt P04275); test: Western blot of denatured VWF probed with scFv A1; assay type: binding; details: scFv A1 1 µg ml^-1; SDS-PAGE denatured VWF
T2 construct: Denatured full length VWF (Mybiosource, USA) was electrophoresed; purchased Mybiosource
Experimental: Denatured full length VWF (Mybiosource, USA) was electrophoresed at 0.1, 10, 100 ng and 1 µg using 5% SDS-Polyacrylamide gel at 125 V for 90 min. The protein was transferred onto PVDF membrane at 90V for 90 min followed by incubation with 1 µg ml^-1 scFv A1 overnight and the membrane was probed with horse-radish peroxidase (HRP)-conjugated detection antibody (1:2500, Sigma).
Later, the membrane was stripped and reprobed with 1 µg ml^-1 polyclonal sheep anti-VWF antibody (Abcam), followed by donkey anti-sheep HRP-conjugated secondary antibody (1:2500, R&D Systems, USA). Chemiluminescent detection of protein bands was done using ECL Western Blotting Substrate (ThermoFisher) and visualisation using a ChemiDoc Touch Imaging system (Bio-Rad, UK).

VWF-full length = target: T3, VWF-full length (Homo sapiens, UniProt P04275); test: BLItz bio-layer interferometry, immobilized full length VWF; details: BLItz binding assay
T3 construct: coated with purified full length VWF or isolated A1 domain
Experimental: as §3

VWF-platelet interaction = test: Platelet-VWF adhesion on collagen III in stenotic microfluidic channels (SRG versus constant shear); assay type: cell-based, human
Description: as §1, §2
For experiments measuring rolling velocities, anti αllbβ3 antibody (abciximab; 20 µg ml^-1)-treated whole blood containing 0.5 µg ml^-1 DiOC6 was drawn over a collagen type III-coated surface. Where indicated, blood was incubated with 30 µM aspirin (Sigma Aldrich, USA) and 300 µM 2-MeSAMP (Sigma-Aldrich Co, St. Louis, MO, USA) prior to blood perfusion. 10 second video clips of rolling platelets were recorded in the green fluorescent channel using an Olympus IX81 microscope system. Platelet rolling velocities were calculated using Diatrack v3.04 large scale particle tracking software (Vallotton et al. Microsc Microanal. 2013 Apr;19(2):451-60).

B1: scFv A1: single chain antibody combining variable heavy chain of mAb CR1 with variable light chain of mAb CR2; VH SEQ ID NO: 11, VL SEQ ID NO: 10 (antibody, V domains shown)
VH: QVQLQQPGAELVRPGASVKLSCKASGYSFTNYWMSWVKQRPGQGLEWIGMIHPSDSDTRLNQKFKDKATLTVDKSSSTAYMQLSSPTSEDSAGLLLCKKFEGWLPVLLGPRHHSHSLLS
VL: DIELTQSPASLAVSLGQSYRASCKSVSTSGYSYMHWNQQKPGQPPRLLIYLVSNLESGVPARFSGSGSGTDFTLNIHPVEEEDAATYYCQHIRELTRSEGDQAEINR
modifications: scFv linker; Mouse
Thrombus formation ([1]; 2000 s^-1 constant shear): no effect
Thrombus formation ([1]; SRGs (187-1,500 s^-1)): inhibited thrombus formation
Thrombus formation ([1]; SRGs (300-2,000 s^-1)): inhibited thrombus formation
Inhibition of thrombus formation ([1]; scFv A1 2.5 µg ml^-1): absent
Inhibition of thrombus formation ([1]; scFv A1 5 µg ml^-1): showed inhibition
Relative thrombus growth (ratio of intensity in the last frame over the first frame) ([1]; scFv A1 5 µg ml^-1, SRG, 1,500 s^-1 in stenosis apex, control 1.58±0.22, p<0.001): 1.2±0.09
Relative thrombus growth (ratio of intensity in the last frame over the first frame) ([1]; scFv A1 5 µg ml^-1, SRG, 2,000 s^-1 in stenosis apex, control 1.85±0.28, p<0.0001): 1.17±0.07
Relative thrombus growth (ratio of intensity in the last frame over the first frame) ([1]; scFv A1 5 µg ml^-1, constant shear 1,500 s^-1, 10 minutes, other value of the pair 1.48±0.16): 1.62±0.2
Relative thrombus growth (ratio of intensity in the last frame over the first frame) ([1]; scFv A1 5 µg ml^-1, constant shear 2,000 s^-1, 10 minutes, other value of the pair 2.11±0.23): 1.9±0.36
Effect on platelet deposition ([1]; scFv A1 5 µg ml^-1, constant shear, straight channel sections): no effect
Inhibition of thrombus formation ([1]; scFv A1 10 µg ml^-1): showed inhibition
Binding to immobilized VWF-A1 domain (VWF-A1 domain): did not observe any binding
Platelet aggregation in the rear area of the collagen patch ([2]; constant shear, SRGs absent): did not reduce; also recorded: not at the rear
Platelet aggregation at the front area of the collagen patch ([2]; local shear gradient): selectively attenuated; also recorded: inhibited platelet aggregation only at the front of the patch
Effect on platelet rolling velocities ([3]; areas other than the stenosis apex): largely unaffected
Platelet rolling velocity ([3]; stenosis apex, control 4.41±0.1, p=0.038): 4.6±0.1 µm s^-1
Complex formation with denatured VWF [4]: did not show any complex formation
Binding to immobilized VWF-full length (VWF-full length): did not observe any binding
Platelet adhesion (VWF-platelet interaction; scFv A1 5 µg ml^-1, stenosis apex, control 3934±892, p=0.7932): 3805±783 platelets/mm^2
Platelet-VWF adhesion (VWF-platelet interaction; scFv A1 5 µg ml^-1, stenosis inlet, control 6187±1097, p=0.0013): 5158±1032 platelets/mm^2
Platelet adhesion (VWF-platelet interaction; scFv A1 5 µg ml^-1, stenosis outlet, control 5042±1167, p=0.07): 4475±1199 platelets/mm^2
Platelet deposition (VWF-platelet interaction; scFv A1 5 µg ml^-1, straight section, constant shear, control 2047±232, p=0.0195): 3096±690 platelets/mm^2
Relative amount of VWF per platelet deposited on aggregates (VWF-platelet interaction; scFv A1, areas of SRGs and constant shear): not reduced
